{"source": "patent US20250144228A1", "about": "(published 2025)", "binders": {"B1": {"name": "anti-p42 A6 VHH (P. falciparum MSP-1 specific) (VHH)", "VHH": "QVQLVESGGGLVQAGGSLRLSCAASARTFSYYGAAWFRQAPGKEREFVAAVSWNGDDTYYADSVKGRFTISRDNTKNTVSLQMNALKPEDTAVYYCEAAAYGRDWRQSANYVYWGQGTQVTVSS"}, "B2": {"name": "VHHkappa (mouse)-biotin (VHH)", "VHH": "QVQLVESGGGWVQPGGSLRLSCAASGFTFSDTAMMWVRQAPGKGREWVAAIDTGGGYTYYADSVKGRFTISRDNAKNTLYLQMNSLKPEDTARYYCAKTYSGNYYSNYTVANYGTTGRGTLVTVSS"}, "B3": {"name": "VHHkappa-biotin (VHH)", "VHH": "B2 VHH"}, "B4": {"name": "SD36-biotin (VHH)", "VHH": "EVQLVESGGGLVQAGGSLKLSCAASGRTYAMGWFRQAPGKEREFVAHINALGTRTYYSDSVKGRFTISRDNAKNTEYLEMNNLKPEDTAVYYCTAQGQWRAAPVAVAAEYEFWGQGTQVTVSS"}, "B5": {"name": "VHHkappa-SD36-biotin-1 (bispecific antibody, V domains shown)", "V domain 1": "B2 VHH", "V domain 2": "B4 VHH"}, "B6": {"name": "VHHkappa-SD36 (bispecific antibody, V domains shown)", "V domain 1": "B2 VHH", "V domain 2": "B4 VHH"}, "B7": {"name": "VHHkappa-SD36-biotin-2 (bispecific antibody, V domains shown)", "V domain 1": "B2 VHH", "V domain 2": "B4 VHH"}, "B8": {"name": "anti-p83 B4 VHH (P. falciparum MSP-1 specific) (VHH)", "VHH": "QLQLVESGGGLAQAGGSLRLSCAASGRTSSTKPMGWFRQAPGLEREFVASISWLGGSTLYSDSVKGRFTISRDNAKNTVYLQMNSLKSEDTAVYYCAGGTSAYSGRDSSRYEYWGQGTQVTVSS"}, "B9": {"name": "anti-p42 G11 VHH (P. falciparum MSP-1 specific) (VHH)", "VHH": "QVQLVETGGGLVQAGGSLRLSCVVSGRSLILYGMGWFRQAPGKEREFVAGIVWNGGWTYYADSVKGRFTISRDTAKNTVYLQMNSLKPEDTAVYSCAAGPGDGRRRVAPAEYNYWGQGTQVTVSS"}, "B10": {"name": "VHHkappa-SD36-biotin (genetic fusion) (bispecific antibody)", "chain": "QVQLVESGGGWVQPGGSLRLSCAASGFTFSDTAMMWVRQAPGKGREWVAAIDTGGGYTYYADSVKGRFTISRDNAKNTLYLQMNSLKPEDTARYYCAKTYSGNYYSNYTVANYGTTGRGTLVTVSSAAAGGGGSGGGGSGGGGSEVQLVESGGGLVQAGGSLKLSCAASGRTYAMGWFRQAPGKEREFVAHINALGTRTYYSDSVKGRFTISRDNAKNTEYLEMNNLKPEDTAVYYCTAQGQWRAAPVAVAAEYEFWGQGTQVTVSSGGLPETGGHHHHHH"}, "B11": {"name": "VHHkappa (mouse)-SD36-biotin (bispecific antibody)", "chain": "B10 chain"}}, "key": {"[1]": {"target": "T1, P. falciparum MSP-1 subunit p42 (plate-bound, isolated) (Plasmodium falciparum, UniProt Q8I0U8 1327-1699)", "T1 chain": "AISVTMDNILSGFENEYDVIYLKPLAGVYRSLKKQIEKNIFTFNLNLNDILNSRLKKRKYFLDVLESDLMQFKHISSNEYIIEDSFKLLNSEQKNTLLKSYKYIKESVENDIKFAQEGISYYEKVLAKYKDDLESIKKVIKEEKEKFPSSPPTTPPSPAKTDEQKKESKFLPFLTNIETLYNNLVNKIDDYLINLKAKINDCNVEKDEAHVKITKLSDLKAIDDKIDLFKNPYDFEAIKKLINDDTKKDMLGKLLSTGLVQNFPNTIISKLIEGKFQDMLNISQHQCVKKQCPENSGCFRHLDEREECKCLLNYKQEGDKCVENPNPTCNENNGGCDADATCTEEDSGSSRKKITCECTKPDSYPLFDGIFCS", "experiment": "ELISA"}, "mouse polyclonal IgA": {"target": "T2, mouse polyclonal IgA (mouse, UniProt P11911)", "T2 sequence (P11911 whole entry, looked up)": "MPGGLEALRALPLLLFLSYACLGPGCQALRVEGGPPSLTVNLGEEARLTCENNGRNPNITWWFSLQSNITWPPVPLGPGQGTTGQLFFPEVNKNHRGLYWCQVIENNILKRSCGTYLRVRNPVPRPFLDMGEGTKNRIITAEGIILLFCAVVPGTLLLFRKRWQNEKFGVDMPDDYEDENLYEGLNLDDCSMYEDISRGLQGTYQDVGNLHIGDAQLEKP", "experiment": "ELISA"}, "mouse polyclonal IgG": {"target": "mouse polyclonal IgG (mouse)", "experiment": "ELISA"}, "[2]": {"target": "a monoclonal mouse IgM, κ Isotype Ctrl (mouse)", "experiment": "ELISA"}, "mouse IgG2b": {"target": "mouse IgG2b (mouse)", "experiment": "ELISA"}, "[3]": {"target": "A/Hong Kong/8/1968 (H3N2) (influenza A virus)"}, "[4]": {"target": "A/Wisconsin/629-D00015/2009 (H1N1)pdm09 (influenza A virus)"}, "hemagglutinin": {"target": "hemagglutinin (influenza A virus)"}, "[5]": {"target": "Influenza A virus - A/Hong Kong/8/1968 (H3N2) (influenza A virus)"}, "[6]": {"target": "T3, P. falciparum MSP-1 subunit p83 (plate-bound, isolated) (Plasmodium falciparum, UniProt Q8I0U8 20-722)", "T3 chain": "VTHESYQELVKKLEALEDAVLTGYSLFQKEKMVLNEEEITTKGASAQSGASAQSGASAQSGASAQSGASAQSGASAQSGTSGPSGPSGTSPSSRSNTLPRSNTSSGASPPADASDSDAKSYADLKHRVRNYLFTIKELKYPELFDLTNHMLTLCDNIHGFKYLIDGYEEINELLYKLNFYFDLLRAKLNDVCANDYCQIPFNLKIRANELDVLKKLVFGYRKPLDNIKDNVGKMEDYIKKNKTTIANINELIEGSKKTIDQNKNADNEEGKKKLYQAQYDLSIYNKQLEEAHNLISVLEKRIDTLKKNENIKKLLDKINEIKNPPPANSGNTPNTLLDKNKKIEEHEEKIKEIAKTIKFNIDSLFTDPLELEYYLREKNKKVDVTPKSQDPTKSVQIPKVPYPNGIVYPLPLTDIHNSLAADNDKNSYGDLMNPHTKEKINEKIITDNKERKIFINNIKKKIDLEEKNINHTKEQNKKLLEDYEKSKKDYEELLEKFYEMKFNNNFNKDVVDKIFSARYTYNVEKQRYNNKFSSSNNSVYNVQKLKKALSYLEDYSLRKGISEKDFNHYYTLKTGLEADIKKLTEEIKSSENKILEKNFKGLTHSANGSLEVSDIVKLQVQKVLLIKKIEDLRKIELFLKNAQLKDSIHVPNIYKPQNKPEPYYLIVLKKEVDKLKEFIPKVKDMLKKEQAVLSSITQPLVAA", "experiment": "ELISA"}}}
{"binder": "B1", "values": [{"measurement": "Kd", "setting": "[1]", "value": 1.96, "unit": "nM"}]}
{"binder": "B2", "values": [{"measurement": "Kd", "setting": "mouse polyclonal IgA", "value": 0.508, "unit": "nM"}, {"measurement": "Kd", "setting": "mouse polyclonal IgG", "value": 0.0072, "unit": "nM"}, {"measurement": "Kd", "setting": "[2]", "value": 0.0112, "unit": "nM"}]}
{"binder": "B3", "values": [{"measurement": "Kd", "setting": "mouse IgG2b", "value": 2.1, "unit": "nM"}]}
{"binder": "B4", "values": [{"measurement": "Kd", "setting": "[3]", "value": 1.3, "unit": "nM"}, {"measurement": "Kd", "setting": "[4]", "value": 18.7, "unit": "nM"}]}
{"binder": "B5", "values": [{"measurement": "Kd", "setting": "mouse IgG2b", "value": 2, "unit": "nM"}]}
{"binder": "B6", "values": [{"measurement": "Kd", "setting": "hemagglutinin", "value": 15.5, "unit": "nM"}, {"measurement": "Kd", "setting": "[5]", "value": 0.6, "unit": "nM"}]}
{"binder": "B7", "values": [{"measurement": "Kd", "setting": "mouse IgG2b", "value": 2.4, "unit": "nM"}]}
{"binder": "B8", "values": [{"measurement": "Kd", "setting": "[6]", "value": 1.81, "unit": "nM"}]}
{"binder": "B9", "values": [{"measurement": "Kd", "setting": "[1]", "value": 0.52, "unit": "nM"}]}
{"binder": "B10", "values": [{"measurement": "Kd", "setting": "[3]", "value": 1.8, "unit": "nM"}, {"measurement": "Kd", "setting": "[4]", "value": 59.7, "unit": "nM"}]}
{"binder": "B11", "values": [{"measurement": "Kd", "setting": "mouse polyclonal IgA", "value": 0.434, "unit": "nM"}, {"measurement": "Kd", "setting": "mouse polyclonal IgG", "value": 0.0083, "unit": "nM"}, {"measurement": "Kd", "setting": "[2]", "value": 0.0102, "unit": "nM"}]}
